assay: soluble on expression in E. coli; label from the status in PepcDB or PDB records

| Sequence | soluble on expression in E. coli |
| --- | --- |
| MGSDKIHHHHHHANNDEWVTCPPGGILAIGTMKIPNADTPRDFFIALDNGDNVLPADTADIRNRKYTVAEGQRVFVGYLQMGKEKPGYENGKIFTIEDILTKEIIPLTEATADSIGDDRINVTAHALTKDYLTIEYQYLGSMNENKKHMLNLVQNEITGPIKDDGYIYLEFRHNAFNDSPNQLGSSLVSFKLDSIAEQLATAKGIKLRVNTIYDNIQYVTIDINEDKNLKIKSFHSQ | not soluble |
| APPSSFSAAKQQAVKIYQDHPISFYCGCDIEWQGKKGIPNLETCGYQVRKQQTRASRIEWEAVVPAWQFGHHRQCWQKGGRKNCSKNDQQFRLMEADLHNLTPAIGEVNGDRSNFNFSQWNGVDGVSYGRCEMQVNFKQRKVMPPDRARGSIARTYLYMSQEYGFQLSKQQQQLMQAWNKSYPVDEWECTRDDRIAKIQGNHNPFVQQSCQTQ | soluble |
| MAHHHHHHMCSTNQKLACCSGDNVFDTKENENDSYPQMVNKQLPPKVLEPIVQNKIVEVPKEVYLEKIVEVPQIKTVERIVEQIRPVIKYKNVYKTKTVYVEKIKNVDRIIYQEKIVEVPQIKTVEKIVEVPVYVDRERIITAPRYMVVEKVIPVLKTTKKESVMEIPEVNCPNIDITQEVESKEEIQIEDLKENQTTSVVHEKDIQLLNDLNIQKMHSSATLNAEADQDTTADTIQNDNFCSTVSCKFLPMYDNFPKMQYSMCNGFPEREKRFSSINIYKSKEEGFPKIRISKTPQIIQRNCYCNYA | not soluble |
| MGSDKIHHHHHHMLRKSLILVLTGALTGLFSSISQGAETLSVATDAIAADFYPATQAGPQYGVLVLGGAEGGKPESLAKAIAHEGHPVLSLAYFNDKGLPQELEQIPLEYFAKAKVWLLNQANVRQDGLILVGWSKGAELSLLLASQDPLFSKVVAIAPSSVIWAGFLKDWTKTPSSSWTQGGKALDFVPFRPTGEVKGLLDLYSQSLQNAKAGQGRIPVENIKGDVVLLTGSNDEIWPSNLMAKALCQRMDTAGTQGSCTHINFEGLDHLLGEKFLDSNDAMHKQFMGFLEAE | not soluble |
| ISSEQDAINNRFLPTTDRFSERGSYGNFNYAAYQPEAAIGGEKNPLIVWLHGIGEVGTDINIPLLASNVARLTEDPIQSHFTSTGSGGQKGAYVLVPQSSIPWSQNQTASLMALIKAYVASHPDIDSRRIYLAGVSNGGGMTLDMGVAYPNYFAALVPIAASYSNQLTDNQITAAALKALKGQPMWLIHTRTDKTISADSSVLPFYKELLQAGAQNKWLSYYETNVGKHHSGVTYNGHWSWIYFLNDQV | not soluble |
| MGSDKIHHHHHHMDQARTTTVDHPDRETPFLLFAQHGWDDRSYPIQQMAQSIAPQYSQVYAPNLGRFRTWIAIEPLIQSVEAVVLEAIAQYPDRPLRFLGHSMGGLIWLEVLSRHREWWDRTHSLVLVGSPVSGSDVCRLLDPFGRLPSIAKDLGRNRRPLAEAIAAQIPTASIVSDLGDYSDGLVPVNSSEFERATLVTLKDISHARLKSHPQVADAIAQFWKQPSIAPRPRDRAGTLIAQLRSLNLTECNHRNFAKAAVLKSQPDGVKIWRWLNPLRVQHIFVSSPDPATGRDCCRYAAYTGWLDDAALSKFLEKL | not soluble |
| MAGGGAGDPGLGAAAAPAPETREHLFKVLVIGELGVGKTSIIKRYVHQLFSQHYRATIGVDFALKVLNWDSRTLVRLQLWDIAGQERFGNMTRVYYKEAVGAFVVFDISRSSTFEAVLKWKSDLDSKVHLPNGSPIPAVLLANKCDQNKDSSQSPSQVDQFCKEHGFAGWFETSAKDNINIEEAARFLVEKILVNHQSFPNEENDVDKIKLDQETLRAENKSQCCLEHHHHHH | not soluble |
| MGSDKIHHHHHHIYCSGKLLQTVMAVQLYPDSKTFVDQPMKENQTGKSIMEHFEKRFPVSIEKITKKDVAEFVDEFFDKEGNELDVCDLPDWRPITEQLANIKDASYQAFAQRLHFIWIQLCRQIKPEVKNDPSRFSLIYVPYQFILPGGRFREFYYWDAYWILKGLIASELYSTARMMILNFAHIIETYGFVPNGGRVYYLRRSQPPFFAPMVYEYYLATQDIQLVADLIPVIEKEYTFWSERRTVNVTYEHPDLNETLHMFQYRTEAETPRPESFREDVLSAEHFTTKDRKKQFFKDLGSAAESGWDFSSRWFKNHKDISTIETTNIVPVDLNAFLCYNMNIMQLFYKLTGNPLKHLEWSSRFTNFREAFTKVFYVPARKGWYDYNLRTLTHNTDFFASNAVPLFSQCYDPLNSQIAVDVYNEMQNSGAFSIPGGIPTSMNEETNQQWDFPNGWSPMNHMIIEGLRKSNNPILQQKAFTLAEKWLETNMQTFNVSDEMWEKYNVKEPLGKLATGGEYEVQAGFGWTNGAALDLIFTYSDRLQYNGPILESLVGSQTTSMKSSPDSSTSLPIDITTTITTSSSSSTFGYSNILTLITVFVLYIL | not soluble |
| MQTLKSDIRNRILSAAKEQFMQRGYLKTSMREIADAVDVGVGNLYNYFENKDELFCVILRPVSDALERMLQEHHGAKGADIMLICSEEYLKSAVDEYISLINKHGELMKILLFHSQGSSLETFREDYTNRSTEIVKTWFAEMKEKHPEINVVVSDFMIHLQAVWMFTLFEEMLKHAIDSKEMEYIVHEYILFEIQGWRALLRV | not soluble |
| EVVVRRLSDPVELEEAVEVHARAWGSRDYREVVAPHILRALVDNGGLVLGAFVGGRMVGASYGWFVGCGEGRYFYSHATGVEEGYKYRGVGFALKARQREEVLREGVSLAKWTFDPLQSLNTRFNLAKLGAVYRVYKVNYYGEMTDEINRGLGSDRVVAEWWL | not soluble |
| MAKEKEKLFSEFPPVSREAWIDKITADLKGVPFEKKLVWRTNEGFNVNPFYRREDIEDLKTTTSLPDEYPYVRSTRMHNEWLVRQDIVVGDNVAEANEKALDLLNKGVDSLGFYLKKVHINVDTLAALLKDIELTAVELNFNCCITRAADLLSAFSAYVKKVGADPNKCHGSVSYDPFKKQLVRGVSNPDWVKMTLPVMDAARELPAFRVLNVNAVNLSDAGAFITQELGYALAWGAELLDKLTDAGYKPEEIASRIKFNFGIGSNYFMEIAKFRAARWLWAQIVGSYGDQYKNETAKIHQHATTSMWNKTVFDAHVNLLRTQTETMSAAIAGVDSITVLPFDVTYQQSDDFSERIARNQQLLLKEECHFDKVIDPSAGSYYIETLTNSIGEEAWKLFLSVEDAGGFTQAAETASIQKAVNASNIKRHQSVATRREIFLGTNQFPNFTEVAGDKITLAQGEHDCNCVKSIEPLNFSRGASEFEALRLATEKSGKTPVVFMLTIGNLAMRLARSQFSSNFFGCAGYKLIDNLGFKSVEEGVDAALAAKADIVVLCSSDDEYAEYAPAAFDYLAGRAEFVVAGAPACMADLEAKGIRNYVHVKSNVLETLRAFNDKFGIR | not soluble |
| MDTLRYLTGYPPAVLEQVRALIAQDKLGAVLAQRYPERHTVRTDRQLYDYVKEMKERYMRSSPTLHKAIYDNHLQVVKHALGTHTAISRVHGSRLKASREIRIAAIFRDAPAPFLQMIVAHELAHLKEPEHDKAFYQLCHHMAPDYHQLEFDLRLYLTQLALSPRDLEHHHHHH | soluble |
| MGSDKIHHHHHHMVAIDLPYDKRTITAQIDDENYAGKLVSQAATYHNKLSEQETVEKSLDNPIGSDKLEELARGKHNIVIISSDHTRPVPSHIITPILLRRLRSVAPDARIRILVATGFHRPSTHEELVNKYGEDIVNNEEIVMHVSTDDSSMVKIGQLPSGGDCIINKVAAEADLLISEGFIESHFFAGFSGGRKSVLPGIASYKTIMANHSGEFINSPKARTGNLMHNSIHKDMVYAARTAKLAFIINVVLDEDKKIIGSFAGDMEAAHKVGCDFVKELSSVPAIDCDIAISTNGGYPLDQNIYQAVKGMTAAEATNKEGGTIIMVAGARDGHGGEGFYHNLADVDDPKEFLDQAINTPRLKTIPDQWTAQIFARILVHHHVIFVSDLVDPDLITNMHMELAKTLDEAMEKAYAREGQAAKVTVIPDGLGVIVK | not soluble |
| MTHVTPFSNPFLLGFETIEKTLRRIGKADETYPAYNIERLHKNDDASHIRITLAVAGFKVNNLNILLDDNQLIIHGKQTDSQNHQYLYRGIAARQFQRTFVLVEGMHVTNAELKNGLLSINLYQPKTKKQMKQIPIKVSNKS | not soluble |
| MINVEQVFALDIGTRLVMGLIMEKAPGGYHIIARAQTEHRQRAMYDGQIHDIEEVAQAVQRVKEELEEKIKGKLHYVSVAAAGRALKTAVATAQKSELIPMIWEREDIFALEMEAVQQALREIQAEDEIIPYHCVGYSTIESLLEGQNLSSLSGQRGKEAQVKVIATFLPRTVIDGLTRVISKVGLEMRELTLEPIAAGRAAIPPDMRRMNLALVDVGAGTSDIALTKSGSFFAYGMVPMAGDEITERICQHFLVDFQTGEKIKRSLNTKTKVTFTDFLGMKTTVNKEEVLEQIQPVVLELAQKLADEILRLNQGNPHAIILIGGGSQTPLLAEVLSDLLELPRNRVGIQVRERIQGVSGEKSLKGPDAITPIGIGISTIEGEGLQYFSVHVNDLTVQIFELQLATVSDALLAAGITPRLLVGRPGSALTVELNGDIKVSKGQFSKPAQFFLNGEEVKLDHELKPGDKIQFIPAQDGENAQATFADLVPAIPEKKIKVNGESVVFTAQIFCNGRPVTRDGDVPDGAKITVFQNQTLKDLLHFLNDKQYSLSEIRYKINGEERVIPIHKEFYINQQKVALERMIKDGDDLVILVKEVYIKDLQLKPTPMVFYVNGQEVEYPPQIFRILSRGRVLSDQEKVVDGMELSVEGYDTMPLLSELLPYVNIPQDVPANARLSLKRNNQEAEFTTPLIPGDRIEIHWEQVASALLEHHHHHH | soluble |
| MGSDKIHHHHHHMATRATQISTLVEEIANNPNLKEDLKILPSNYTFEVPKTIWKIRSTESKYVALQFPEGLIMYACVIADILEKYTGCDTVIMGDVTYGACCVDDYTAKSMGCDLLVHYGHSCLVPIQNTDGIAMLYVFVNIHINLSHLIDCVKENFQGKRLVVVSTVQFIPSLQTLRTTFNKDDSSIRIDIPQCKPLSPGEVLGCTSPRLDASKYDAIVYLGDGRFHLESIMIHNPEIEAFQYDPYSRKLTREFYDHDLMRKNRIGSIEIARKCTTFGLIQGTLGRQGNLKVVEELEAQLERKGKKFLRVLLSEIFPEKLAMFPEVDCWVQVACPRLSIDWGTQFPKPLLYPFELAVALDNISVPSDHWPMDYYSNDSLGPWTNNNEANRPKREKRKPHIVVRTEAS | not soluble |
| MQIQQNNSLIYNTLTKKLSSFIPIKSTRRKLRNHIQYKLEHPKVTNYLSNNYINPFLEGKIPHFDFEKKHYFKNDKIIWQFWYQGKNQASPMIQQCFNSVQSQMKDDYTIIILDKDNIKDYLDFPPFVIEKLENNFFGEKTITFFSDLLRVCLLATYGGIWCDASIFLSSKIPSELCDKDFFTFERSKIKPSKEKLKKFIKSGYFSYGYFNWNDDFKVKMLSSFMIAKTNNTFIQTLKDILMNYWKNEQSSENHYYFILHIIFELLKEHGFVNDIYKNMSDIECHLLQFSAKEKFNSTLWEEIQKQSFLHKLTHFKSIKKDSMIDKIILQSLEHHHHHH | soluble |
| MALNGAEVDDFSWEPPTEAETKVLQARRERQDRISRLMGDYLLRGYRMLGETCADCGTILLQDKQRKIYCVACQELDSDVDKDNPALNAQAALSQAREHQLASASELPLGSRPAPQPPVPRPEHCEGAAAGLKAAQGPPAPAVPPNTDVMACTQTALLQKLTWASAELGSSTSLETSIQLCGLIRACAEALRSLQQLQHLEHHHHHH | not soluble |
| MFFIRTAGLRDIEPVRTLLATTWHATYDAIYGADKVNELIAVWHSPQAMKDRVEKKGGEFLVADDGKRIGGMAYGSMSTKMAKTALLHQLYVAPDLQRQGVGRDLFAELETCFPDAEIMRLEVEPKNTVAIAFYEGVGFVEVDRIERMAGIEGLPGIVMEKSLTR | not soluble |

Reference: the DeepSol protein solubility set
